What was measured:
Experiment in all cases: cell-based or functional assay
human CD28 [1] = target: T1, human CD28 (human, UniProt P10747 19-220)
human CD28 [2] = target: T1, human CD28; remark: listed apart in the source
human CD28 [3] = target: T1, human CD28; remark: listed apart in the source
human CD28 [4] = target: T1, human CD28; remark: listed apart in the source

- DC-MLR Assay (EC50 nM) (human CD28 [1]): 2.3 nM
- IFNγ (EC50 nM), DC-driven MLR (human CD28 [2]): 2.5 nM
- IL-2 (EC50 nM), DC-driven MLR (human CD28 [2]): 1.5 nM
- TNFα (EC50 nM), DC-driven MLR (human CD28 [2]): 1.7 nM
- CD80 CHO (EC50 nM), T cell proliferation (human CD28 [3]): 0.4 nM
- CD86 CHO (EC50 nM), T cell proliferation (human CD28 [3]): 0.4 nM
- EC50 of T cell proliferation, Monocytes as APC (human CD28 [4]): 10
B1: 1h-239-891(D70C) 40K branched PEG (other)
VL: DIQMTQSPSSLSASVGDRVTITCRASRPIWPFLEWYQQKPGKAPKLLIYFTSRLRHGVPSRFSGSGSGTCFTLTISSLQPEDFATYYCLQNVANPATFSQGTKVEIKR
modifications: 40 kDa branched PEG; engineered cysteine D70C

Source: patent publication US20130109846A1 (published 2013)
